Laboratory results taken from publication PMC8166883 (2020).
Substitutions are numbered along the chain they refer to.

B1: anti-hVEGF-A clone A033AM-19 (affinity-matured from A033) (antibody, V domains shown)
VH: EVELVQSGAEVKKPGSSVKVSCKASGGTFSDYSISWVRQAPGQGLEWMGGIIPIFGTPNYAQKFQGRVTITADESTSTAYMELSSLRSEDTAVYYCADGGAYCGGDCYSGYYYYGMDVWGQGTTVTVSS
VL: QSALTQPASVSGSPGQSITISCTGTSSDVGGYNLVSWYQQHPGKAPKLMIYQDNNKRPSGVSNRFSGSKSGNTASLTISGLQAEDEADYYCSYTNDSNSQVFGGGTKLTVL
B2: anti-hVEGF-A clone A033 (antibody, V domains shown)
VH: B1 VH with D31S, S33A
VL: B1 VL
B3: FLAG-tagged human vascular endothelial growth factor-A (FLAG-hVEGF-A) (ligand)
chain: APMAEGGGQNHHEVVKFMDVYQRSYCHPIETLVDIFQEYPDEIEYIFKPSCVPLMRCGGCCNDEGLECVPTEESNITMQIMRIKPHQGQHIGEMSFLQHNKCECRPKKDRARQENPCGPCSERRKHLFVQDPQTCKCSCKNTDSRCKARQLELNERTCRCDKPRR

Experiments:
Assay in all cases: SPR
[1] = molecular target: B3
B015 = molecular target: B015
B021 = molecular target: B021

B1
koff [1]: 0.000411 s⁻¹

B2
koff [1]: 0.00405 s⁻¹

B3
Kd (B015): 0.0294 nM
koff (B015): 0.000549 s⁻¹
Kd (B021): 0.903 nM
koff (B021): 0.000577 s⁻¹
